From US20250121086A1, “LIVER-TARGETED SUBSTANCE AND USE THEREOF” (HANMI PHARM. CO., LTD., priority 2021, published 2025) come the findings set out here.

Bridge positions count the residues as written; N and C are the ends. Square brackets hold non-standard residues; d marks the D form. Ends that are not written are not given here. Aib = CC(C)(N)C(=O)O Some results are limits rather than exact numbers.

For this assay, the target named is human glucagon receptor (human, UniProt P47871 26-477). Kind of assay: cell-based or functional assay.
Sequence of human glucagon receptor (P47871 26-477): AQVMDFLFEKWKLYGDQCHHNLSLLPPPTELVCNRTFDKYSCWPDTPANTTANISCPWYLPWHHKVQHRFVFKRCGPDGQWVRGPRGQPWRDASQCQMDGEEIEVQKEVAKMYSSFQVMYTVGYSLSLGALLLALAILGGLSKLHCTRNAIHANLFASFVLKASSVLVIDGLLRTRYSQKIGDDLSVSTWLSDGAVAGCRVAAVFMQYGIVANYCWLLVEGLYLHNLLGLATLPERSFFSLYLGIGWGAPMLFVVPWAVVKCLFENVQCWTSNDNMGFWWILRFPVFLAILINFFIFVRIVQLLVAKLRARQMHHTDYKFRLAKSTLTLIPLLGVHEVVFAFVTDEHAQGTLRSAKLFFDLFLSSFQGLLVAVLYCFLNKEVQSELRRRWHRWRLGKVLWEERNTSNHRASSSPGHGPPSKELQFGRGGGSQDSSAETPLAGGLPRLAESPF
W[Aib]QGTFVSDYSKYLDECRAKDFVQWLMNT (lactam 16-20) [glucagon derivative peptide of SEQ ID NO: 28]: the “In vitro activity (relative activity compared with SEQ ID NO: 1, %); cAMP EC50 in CHO cells expressing human GCG receptor” value is less than 0.1%.
The same measure for YXQGTFTSDYSKYLDSRRAQDFVQWLMNTC (aminoisobutyric acid (Aib) at position 2 (printed X)) [glucagon derivative peptide of SEQ ID NO: 44]: 75.4%; for Y[Aib]QGTFTSDYSKYLDSRRACDFRLWLMNT [glucagon derivative peptide of SEQ ID NO: 18]: less than 0.1%.
On to W[Aib]QGTFTSDYSKYLDECRAKDFVQWLMNT (lactam 16-20) [glucagon derivative peptide of SEQ ID NO: 26], for which the “In vitro activity (relative activity compared with SEQ ID NO: 1, %); cAMP EC50 in CHO cells expressing human GCG receptor” value is 1%.
Regarding Y[Aib]QGTFCSDYSKYLDSRRAQDFVQWLMNT [glucagon derivative peptide of SEQ ID NO: 42], the “In vitro activity (relative activity compared with SEQ ID NO: 1, %); cAMP EC50 in CHO cells expressing human GCG receptor” value was found to be 37.9%.
The same measure for Y[Aib]QGTFVSDYSKYLDERRAKDFVQWLMNTC (lactam 16-20) [glucagon derivative peptide of SEQ ID NO: 40]: 40.8%.
Consider Y[Aib]QGTFTSDYSCYLDSRRAQDFVQWLMNT [glucagon derivative peptide of SEQ ID NO: 13], for which the “In vitro activity (relative activity compared with SEQ ID NO: 1, %); cAMP EC50 in CHO cells expressing human GCG receptor” value was found to be 5.2%.
On to Y[Aib]QGTFVSDCSKYLDERRAKDFVQWLMNT (lactam 16-20) [glucagon derivative peptide of SEQ ID NO: 39], for which the “In vitro activity (relative activity compared with SEQ ID NO: 1, %); cAMP EC50 in CHO cells expressing human GCG receptor” value stood at 3.7%.
As to Y[Aib]QGTFTSDYSKYLCEKRAKEFVQWLMNT (lactam 16-20) [glucagon derivative peptide of SEQ ID NO: 19], the “In vitro activity (relative activity compared with SEQ ID NO: 1, %); cAMP EC50 in CHO cells expressing human GCG receptor” value turned out to be 12.1%.
Regarding HSQGTFTSDYSKYLDCERAQDFVQWLMNT [glucagon derivative peptide of SEQ ID NO: 3], the “In vitro activity (relative activity compared with SEQ ID NO: 1, %); cAMP EC50 in CHO cells expressing human GCG receptor” value was 6.1%.
Turning to Y[Aib]QGTFTSDYSKCLDERRAKDFVQWLMNT (lactam 16-20) [glucagon derivative peptide of SEQ ID NO: 29], the “In vitro activity (relative activity compared with SEQ ID NO: 1, %); cAMP EC50 in CHO cells expressing human GCG receptor” value is 61.3%.
Take Y[Aib]QGTFTSDYSKYLDCVRAQDFVQWLMRT [glucagon derivative peptide of SEQ ID NO: 17]: the “In vitro activity (relative activity compared with SEQ ID NO: 1, %); cAMP EC50 in CHO cells expressing human GCG receptor” value was 23.2%.
Consider Y[Aib]QGTFTSDYSKYLDEKRCKEFVQWLMNT (lactam 16-20) [glucagon derivative peptide of SEQ ID NO: 22], for which the “In vitro activity (relative activity compared with SEQ ID NO: 1, %); cAMP EC50 in CHO cells expressing human GCG receptor” value worked out at 148%.
The same measure for W[Aib]QGTFTSDYSKYCDERRAKEFVQWLMNT (lactam 16-20) [glucagon derivative peptide of SEQ ID NO: 34]: 0.2%; for Y[Aib]QGTFTSDYSKYLDEKRAKCFVQWLMNT (lactam 16-20) [glucagon derivative peptide of SEQ ID NO: 25]: 46.9%; for Y[Aib]QGTFCSDYSKYLDERRAKDFVQWLMNT (lactam 16-20) [glucagon derivative peptide of SEQ ID NO: 41]: 45.2%.
For Y[Aib]QGTFTSDCSKYLDERRAKEFVQWLMNT (lactam 16-20) [glucagon derivative peptide of SEQ ID NO: 36], the “In vitro activity (relative activity compared with SEQ ID NO: 1, %); cAMP EC50 in CHO cells expressing human GCG receptor” value is 9.9%.
Turning to SQGTFTSDYSKYLDECRAKEFVQWLMNT (lactam 15-19) [glucagon derivative peptide of SEQ ID NO: 32], the “In vitro activity (relative activity compared with SEQ ID NO: 1, %); cAMP EC50 in CHO cells expressing human GCG receptor” value was determined as 0.7%.
The value for Y[Aib]QGTFTSDYSKYLDSCDAQDFVVWLINT [glucagon derivative peptide of SEQ ID NO: 9] was less than 0.1%; that for Y[Aib]QGTFVSDYSKYLDECRAKDFVQWLMNT (lactam 16-20) [glucagon derivative peptide of SEQ ID NO: 27] was 93.6%; that for YSQGTFTSDYSKYLDSCEADDFVQWLMNT [glucagon derivative peptide of SEQ ID NO: 7] was less than 0.1%.
The value for Y[Aib]QGTFTSDYSKYLCEKRAQDFVVWLMNT [glucagon derivative peptide of SEQ ID NO: 15] was 1.1%.
Regarding Y[Aib]QGTFTSDYSKCLDEKRAKEFVQWLMNT (lactam 16-20) [glucagon derivative peptide of SEQ ID NO: 24], the “In vitro activity (relative activity compared with SEQ ID NO: 1, %); cAMP EC50 in CHO cells expressing human GCG receptor” value turned out to be 58%.
HSQGTFTSDYSKYLDSCEAQDFVQWLMNT [glucagon derivative peptide of SEQ ID NO: 5]: the “In vitro activity (relative activity compared with SEQ ID NO: 1, %); cAMP EC50 in CHO cells expressing human GCG receptor” value turned out to be 0.3%.
Take Y[Aib]QGTFTSDYSKYCDERRAKEFVQWLMNT (lactam 16-20) [glucagon derivative peptide of SEQ ID NO: 35]: the “In vitro activity (relative activity compared with SEQ ID NO: 1, %); cAMP EC50 in CHO cells expressing human GCG receptor” value was 17.7%.
The value for Y[Aib]QGTFTSDYSKYLDCRRAQVFVQWLMRT [glucagon derivative peptide of SEQ ID NO: 16] was 4.2%; that for Y[Aib]QGTFTSDCSKYLDSRRAQDFVQWLMNT [glucagon derivative peptide of SEQ ID NO: 43] was 1.6%; that for Y[Aib]QGTFTSDYSKYLDSCDAQDFVQWLINT [glucagon derivative peptide of SEQ ID NO: 8] was less than 0.1%.
Y[Aib]QGTFTSDYSKYLDEKCAKEFVQWLMNT (lactam 16-20) [glucagon derivative peptide of SEQ ID NO: 21]: the “In vitro activity (relative activity compared with SEQ ID NO: 1, %); cAMP EC50 in CHO cells expressing human GCG receptor” value was 57.8%.
The value for HSQGTFTSDYSKYLDSCDAQDFVQWLMNT [glucagon derivative peptide of SEQ ID NO: 4] was less than 0.1%; that for Y[Aib]QGTFTSDYSCYLDEKRAKEFVQWLMNT [glucagon derivative peptide of SEQ ID NO: 45] was 5.2%; that for Y[Aib]QGTFTSDYSKYLDECRAKEFVQWLMNT (lactam 16-20) [glucagon derivative peptide of SEQ ID NO: 20] was 300%.
With Y[Aib]QGTFTSDYSKYLDCKRAKEFVQWLMNT [glucagon derivative peptide of SEQ ID NO: 14], the “In vitro activity (relative activity compared with SEQ ID NO: 1, %); cAMP EC50 in CHO cells expressing human GCG receptor” value stood at 18.1%.
Y[Aib]QGTFTSDYSKYLDERRAKEFVQWLMNTC (lactam 16-20) [glucagon derivative peptide of SEQ ID NO: 37]: the “In vitro activity (relative activity compared with SEQ ID NO: 1, %); cAMP EC50 in CHO cells expressing human GCG receptor” value stood at 226%.
Consider Y[Aib]QGTFCSDYSKYLDERRAKEFVQWLMNT (lactam 16-20) [glucagon derivative peptide of SEQ ID NO: 38], for which the “In vitro activity (relative activity compared with SEQ ID NO: 1, %); cAMP EC50 in CHO cells expressing human GCG receptor” value was determined as 167%.
Y[Aib]QGTFTSDYSKYCDEKRAKEFVQWLMNT (lactam 16-20) [glucagon derivative peptide of SEQ ID NO: 23]: the “In vitro activity (relative activity compared with SEQ ID NO: 1, %); cAMP EC50 in CHO cells expressing human GCG receptor” value was 76.8%.
In the case of HSQGTFTSDYSKYLDCDRAQDFVQWLMNT [glucagon derivative peptide of SEQ ID NO: 2], the “In vitro activity (relative activity compared with SEQ ID NO: 1, %); cAMP EC50 in CHO cells expressing human GCG receptor” value was found to be 0.6%.
With Y[Aib]QGTFTSDYSKYLDSCDADDFVVWLINT [glucagon derivative peptide of SEQ ID NO: 10], the “In vitro activity (relative activity compared with SEQ ID NO: 1, %); cAMP EC50 in CHO cells expressing human GCG receptor” value was less than 0.1%.
Regarding HSQGTFTSDYSKYLDSCEADDFVQWLMNT [glucagon derivative peptide of SEQ ID NO: 6], the “In vitro activity (relative activity compared with SEQ ID NO: 1, %); cAMP EC50 in CHO cells expressing human GCG receptor” value is less than 0.1%.
On to YXQGTFTSDYSKYLDSRRAQDFVQWLMNT (aminoisobutyric acid (Aib) at position 2 (printed X)) [glucagon derivative peptide of SEQ ID NO: 33], for which the “In vitro activity (relative activity compared with SEQ ID NO: 1, %); cAMP EC50 in CHO cells expressing human GCG receptor” value turned out to be 108%.
The same measure for Y[Aib]QGTFTSDYSKYLDEKCAKEFVQWLMNT [glucagon derivative peptide of SEQ ID NO: 11]: 4.6%; for W[Aib]QGTFTSDYSKCLDERRAKDFVQWLMNT (lactam 16-20) [glucagon derivative peptide of SEQ ID NO: 30]: 0.3%.
Turning to Y[Aib]QGTFTSDYSKYLDCKRAKEFVQWLMNT (lactam 17-21) [glucagon derivative peptide of SEQ ID NO: 31], the “In vitro activity (relative activity compared with SEQ ID NO: 1, %); cAMP EC50 in CHO cells expressing human GCG receptor” value was 6.3%.
